Laboratory results from patent publication US6767720 (VLAAMS INTERUNIVERSITAIR INSTITUUT VOOR BIOTECHNOLOGIE VZW, dated 2004).

T1: human αE-catenin (full-length; expressed from pJ6αECTN in HEK293T cells, also endogenous in HEK293T) (human, UniProt P35221 1-906)
T1 construct: also called PJ6αECTN(37-3433); pJ6αE-catenin
T1 sequence (looked up): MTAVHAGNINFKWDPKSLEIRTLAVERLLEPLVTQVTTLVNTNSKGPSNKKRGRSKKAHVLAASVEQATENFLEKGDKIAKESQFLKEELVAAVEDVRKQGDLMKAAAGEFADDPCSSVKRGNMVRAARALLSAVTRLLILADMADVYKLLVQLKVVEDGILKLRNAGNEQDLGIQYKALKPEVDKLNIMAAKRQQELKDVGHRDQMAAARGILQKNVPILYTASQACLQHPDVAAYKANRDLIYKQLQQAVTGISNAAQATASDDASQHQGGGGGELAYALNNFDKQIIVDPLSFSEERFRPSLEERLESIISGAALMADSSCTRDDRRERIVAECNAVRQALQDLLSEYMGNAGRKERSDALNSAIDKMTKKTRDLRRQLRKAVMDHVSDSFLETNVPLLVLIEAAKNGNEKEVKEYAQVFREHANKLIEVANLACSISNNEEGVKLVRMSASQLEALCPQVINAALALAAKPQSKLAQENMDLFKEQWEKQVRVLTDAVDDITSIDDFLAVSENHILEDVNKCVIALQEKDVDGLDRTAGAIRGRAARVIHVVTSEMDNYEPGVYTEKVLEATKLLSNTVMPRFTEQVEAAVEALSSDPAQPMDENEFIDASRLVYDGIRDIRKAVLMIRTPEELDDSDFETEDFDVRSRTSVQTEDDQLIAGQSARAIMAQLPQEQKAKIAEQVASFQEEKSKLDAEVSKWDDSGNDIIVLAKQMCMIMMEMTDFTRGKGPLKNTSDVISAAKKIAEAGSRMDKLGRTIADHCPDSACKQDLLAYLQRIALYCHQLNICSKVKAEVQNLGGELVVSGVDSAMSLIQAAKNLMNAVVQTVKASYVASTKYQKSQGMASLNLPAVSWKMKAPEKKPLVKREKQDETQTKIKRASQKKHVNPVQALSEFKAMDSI

B1: ANC-2H01 initial two-hybrid clone (part of ANC-2H01 fused to the GAL4-AD, plasmid pGAD10ANC2H01) (other, not shown: large carriers)
chain: IADGFNGIFSDHCYSVCSMRQPDLKYFDNKDDDSDTETSNDLPKFADGIKARNRNQNYLVPSPVLRILDHTAFSTEKSADIVICDEECDSPESVNQQTQEESPIEVHTAEDVPIAVEVHAISEDYDIETENNSSESLQDQTDEEPPAKLCKILDKSQALNVTAQQKWPLLRANSSGLYKCELCEFNSKYFSDLKQHMILKHKRTDSNVCRVCKESFSTNMLLIEHAKLHEEDPYICKYCDYKTVIFENLSQHIADTHFSDHLYWCEQCDVQFSSSSELYLHFQEHSCDEQYLCQFCEHETNDPEDLHSHVVNEHACKLIELSDKYNNGEHGQYSLLSKITFDKCKNFFVCQVCGFRSRLHTNVNRHVAIEHTKIFPHVCDDCGKGFSSMLEYCKHLNSHLSEGIYLCQYCEYSTGQIEDLKIHLDFKHSADLPHKCSDCLMRFGNERELISHLPVHETT
notes: 27-485 is derived from 459 of 485 residues; also called ANC-2H01 clone; initial ANC-2H01 two-hybrid clone
B2: αN-catenin residues 4-193 fused to the GAL4-DBD (plasmid pGBT9ANCTN(EcoRI-BamHI)) (other, UniProt P04386 1-147, looked up)
chain: MKLLSSIEQACDICRLKKLKCSKEKPKCAKCLKNNWECRYSPKTKRSPLTRAHLTEVESRLERLEQLFLLIFPREDLDMILKMDSLQDIKALLTGLFVQDNVNKDAVTDRLASVETDMPLTLRQHRISATSSSEESSNKGQRQLTVSATSPIILKWDPKSLEIRTLTVERLLEPLVTQVTTLVNTSNKGPSGKKKGRSKKAHVLAASVEQATQNFLEKGEQIAKESQDLKEELVAAVEDVRKQGETMRIASSEFADDPCSSVKRGTMVRAARALLSAVTRLLILADMADVMRLLSHLKIVEEALEAVKNATNEQDLANRFKEFGKEMVKLNYVAARR
B3: αN-catenin residues 535-787 fused to the GAL4-DBD (plasmid pGBT9ANCTN(PstI 1618-2375)) (other, UniProt P04386 1-147, looked up)
chain: MKLLSSIEQACDICRLKKLKCSKEKPKCAKCLKNNWECRYSPKTKRSPLTRAHLTEVESRLERLEQLFLLIFPREDLDMILKMDSLQDIKALLTGLFVQDNVNKDAVTDRLASVETDMPLTLRQHRISATSSSEESSNKGQRQLTVSTLDRTAGAIRGRAARVIHIINAEMENYEAGVYTEKVLEATKLLSETVMPRFAEQVEVAIEALSANVPQPFEENEFIDASRLVYDGVRDIRKAVLMIRTPEELEDDSDFEQEDYDVRSRTSVQTEDDQLIAGQSARAIMAQLPQEEKAKIAEQVEIFHQEKSKLDAEVAKWDDSGNDIIVLAKQMCMIMMEMTDFTRGKGPLKNTSDVINAAKKIAEAGSRMDKLARAVADQCPDSACKQDLLAYLQRIALYCH

Legend:
[1] = target: T1, human αE-catenin (full-length; …); experiment: co-immunoprecipitation from cotransfected HEK293T cells, Western blot
[2] = target: T2, human αN-catenin fused to the GAL4-DBD in pGBT9 (plasmid pGBT9ANCTN) (human, UniProt P04386 1-147; P26232 4-905, limits assumed); experiment: yeast two-hybrid, strain Y190 (FIG. 16)
T2 construct: Construction of pGBT9ANCTN is not described; also called pGBT9αNCTN; pGBT9-αNCTN

[3] = target: T2, human αN-catenin fused to the GAL4-DBD …; experiment: yeast two-hybrid (FIG. 4)
[4] = target: B2; experiment: yeast two-hybrid (FIG. 4)
[5] = target: αN-catenin residues 4-535 fused to the GAL4-DBD (plasmid pGBT9ANCTN(EcoRI-PstI)) (human, UniProt P04386 1-147; P26232 4-535); experiment: yeast two-hybrid (FIG. 4)
[6] = target: B3; experiment: yeast two-hybrid (FIG. 4)
[7] = target: T3, αN-catenin residues 543-906 fused to the GAL4-DBD (plasmid pGBT9ANCTN-(XhoI-SalI)) (human, UniProt P04386 1-147; P26232 543-906); experiment: yeast two-hybrid (FIG. 4)
T3 construct: the UniProt canonical isoform differs near the C-terminus

[8] = target: T4, human αE-catenin fused to the GAL4-DBD (plasmid pGBT9αECTN) (human, UniProt P04386 1-147; P35221 1-906, limits assumed); experiment: yeast two-hybrid, strain HF7c (FIG. 4)
T4 construct: also called full-length αE-catenin

[9] = target: B1; experiment: yeast two-hybrid (FIG. 4)

Binder | binding result [2] | binding result [3] | binding result [4] | binding result [5] | binding result [6] | binding result [7] | binding result [8] | further results
E-tagged full-length ANC-2H01 protein (expression plasmid pEFBOSANC-2H01E), expressed in HEK293T cells (other, also called pEFBOS-EANC-2H01; E-tagged ANC-2H01; not shown: E-tag derived from plasmid pCANTAB5E (Pharmacia), at the amino-terminal side) MNEYPKKRKRKTLHPSRYSDSSGISRIADGFNGIFSDHCYSVCSMRQPDLKYFDNKDDDSDTETSNDLPKFADGIKARNRNQNYLVPSPVLRILDHTAFSTEKSADIVICDEECDSPESVNQQTQEESPIEVHTAEDVPIAVEVHAISEDYDIETENNSSESLQDQTDEEPPAKLCKILDKSQALNVTAQQKWPLLRANSSGLYKCELCEFNSKYFSDLKQHMILKHKRTDSNVCRVCKESFSTNMLLIEHAKLHEEDPYICKYCDYKTVIFENLSQHIADTHFSDHLYWCEQCDVQFSSSSELYLHFQEHSCDEQYLCQFCEHETNDPEDLHSHVVNEHACKLIELSDKYNNGEHGQYSLLSKITFDKCKNFFVCQVCGFRSRLHTNVNRHVAIEHTKIFPHVCDDCGKGFSSMLEYCKHLNSHLSEGIYLCQYCEYSTGQIEDLKIHLDFKHSADLPHKCSDCLMRFGNERELISHLPVHETT | – | – | – | – | – | – | – | binding result [1]: no binding
zinc fingers 4 to 5 of ANC-2H01 fused to the GAL4-AD (plasmid pACT2ANC2H01-ZF4-5) (other, not shown: large carriers, also called pACT2ANC2H01Zn4-5) LYWCEQCDVQFSSSSELYLHFQEHSCDEQYLCQFCEHETNDPEDLHSHVVNEHACKLIELSDK | no binding | – | – | – | – | – | – | –
zinc fingers 1 to 5 of ANC-2H01 fused to the GAL4-AD (plasmid pACT2ANC2H01ZF1-5) (other, not shown: large carriers) LYKCELCEFNSKYFSDLKQHMILKHKRTDSNVCRVCKESFSTNMLLIEHAKLHEEDPYICKYCDYKTVIFENLSQHIADTHFSDHLYWCEQCDVQFSSSSELYLHFQEHSCDEQYLCQFCEHETNDPEDLHSHVVNEHACKLIELSDK | no binding | – | – | – | – | – | – | –
ANC-2H01/600 (amino-terminal part of the initial ANC-2H01 plus half of the first zinc finger, fused to the GAL4-AD in pGAD10) (other, not shown: large carriers, whole entry named, only the stated part stood in the assay) IADGFNGIFSDHCYSVCSMRQPDLKYFDNKDDDSDTETSNDLPKFADGIKARNRNQNYLVPSPVLRILDHTAFSTEKSADIVICDEECDSPESVNQQTQEESPIEVHTAEDVPIAVEVHAISEDYDIETENNSSESLQDQTDEEPPAKLCKILDKSQALNVTAQQKWPLLRANSSGLYKCELCEFNSKY | – | no binding | no binding | no binding | no binding | no binding | no binding | –
B1 | – | – | – | – | – | no binding | no binding | –
ANC-2H01/500 (amino-terminal part of ANC-2H01 lacking any functional zinc finger, fused to the GAL4-AD in pGAD10) (other, not shown: large carriers, whole entry named, only the stated part stood in the assay) IADGFNGIFSDHCYSVCSMRQPDLKYFDNKDDDSDTETSNDLPKFADGIKARNRNQNYLVPSPVLRILDHTAFSTEKSADIVICDEECDSPESVNQQTQEESPIEVHTAEDVPIAVEVHAISEDYDIETENNSSESLQDQTDEEPPAKLCKILDKSQALNVTAQQKW | – | no binding | no binding | no binding | no binding | no binding | no binding | –
zinc fingers 1 to 3 of ANC-2H01 fused to the GAL4-AD (plasmid pACT2ANC2H01ZF1-3) (other, not shown: large carriers) LYKCELCEFNSKYFSDLKQHMILKHKRTDSNVCRVCKESFSTNMLLIEHAKLHEEDPYICKYCDYKTVIFENLSQHIADTHFSDHL | no binding | – | – | – | – | – | – | –
B2 | – | – | – | – | – | – | – | binding result [9]: no binding
ANC-2H01/BamHI (amino-terminal part of the ANC-2H01 clone plus two of the nine zinc fingers, fused to the GAL4-AD in pGAD10) (other, not shown: large carriers, 700-bp BamHI fragment of the initial clone; only the stated part stood in the assay; also called pGAD10ANC-2H01/BamHI) IADGFNGIFSDHCYSVCSMRQPDLKYFDNKDDDSDTETSNDLPKFADGIKARNRNQNYLVPSPVLRILDHTAFSTEKSADIVICDEECDSPESVNQQTQEESPIEVHTAEDVPIAVEVHAISEDYDIETENNSSESLQDQTDEEPPAKLCKILDKSQALNVTAQQKWPLLRANSSGLYKCELCEFNSKYFSDLKQHMILKHKRTDSNVCRVCKESFSTNMLLIEHAKLHEEDP | – | no binding | no binding | no binding | no binding | no binding | no binding | –
B3 | – | – | – | – | – | – | – | binding result [9]: no binding
